The record followed here is PMC3574117.

Experiment [1] addresses PhaF phasin from Pseudomonas putida KT2440 (Pseudomonas putida KT2440). The experiment in a line: AUC; sedimentation velocity; 38 µM PhaF (3.8 to 38 µM, data not shown) in 20 mM sodium phosphate pH 7.0, 150 mM NaCl, 48000 rpm, 20 °C; c(s) analysis.
The target is the same in experiment [2]. The experiment in a line: AUC; sedimentation equilibrium, short columns, 10000 and 16000 rpm, 20 mM sodium phosphate pH 7.0, 150 mM NaCl, 20 °C; single-species fit.

As a reminder, the stoichiometry N is a count of units in the complex or per binding partner. “PhaF phasin from Pseudomonas putida KT2440 (natural protein)”: the stoichiometry N in experiment [1] and in experiment [2] was 4 throughout.
